Experimental data taken from publication PMC7217734 (Journal of biomolecular structure & dynamics, 2019).

Molecular target: peptide 91a (human)
Assay: ITC

EELARLEREYQDLLNVKMALDIEIATYRKLLEALESR [peptide 374a]
Kd: 3000 nM | stoichiometry N: ~1
